One data set concerns S. cerevisiae W303a. In words: Methyl iodide toxicity assay in yeast. The data set is classed as cell-based. Conditions: W303a lab strain, OD600 at 24 hours of growth, commercially available CH3I added. The source says: (§1) FIG. 11A-D: Methyl iodide production in recombinant S. cerevisiae. FIG. 11A. CH3I production pathway. The B. maritima MHT is expressed with a N-terminal vacuole targeting tag. The […] MHT methylates iodide ions using SAM as a methyl donor. FIG. 11B, CH3I measured in culture headspace over time. Activity on glucose-grown cells is shown. FIG. 11C, CH3I yields in grams per liter of culture per day. Values for the culturable red algae E. muricata are taken from the literature. Yields from B. maritima MHT-expressing E. coli and S. cerevisiae are calculated by comparison to standard curves. FIG. 11D, CH3I toxicity in yeast. Exponential phase cultures were diluted to an OD600 of 0.05 and commercially available CH3I was added. OD600 was measured at 24 hours of growth. The W303a lab strain is shown in filled boxes, the DNA methylation-sensitive RAD50Δ mutant is shown in open boxes.
(§2) Individual colonies were inoculated in YP media with 2% glucose and grown overnight. Cultures were diluted to an OD600 of 0.05 and methyl iodide was added to the specified amount. […] OD600 was measured by spectrometry with YP media used as a blank. Each data point was performed in triplicate. The RAD50Δ mutant was obtained from the Saccharomyces Genome Deletion Project (Invitrogen).

The next data set concerns RAD50Δ mutant. The data set is classed as cell-based, S. cerevisiae. Conditions: RAD50Δ mutant compared with W303a, OD600 at 24 hours.
Source text: as §1, §2

Data set [1] relates to E. coli.
Method: Methyl halide production can be measured by gas chromatography. In the experiments described below an Agilent gas chromatography/mass spectrometry (GC/MS) system was used. Most often the “AIR.U” tune file, uses an ionization voltage of 1341. In some experiments an ionization voltage of about 1250 was used. A solvent delay of 0 was set and the scan parameters set to 15-100 MW. The injection port and column were preset to 50° C. The sample to be tested was mixed by shaking for a few seconds. 100 μL of the headspace gas was extracted with a gas-tight syringe. The sample gas was manually injected into the GCMS injection port. The GCMS program was started with the following settings: 1:00 at 50° C.; a ramp of 10° C. per min to 70° C. (the sample typically came off at ˜52° C.); 1:00 at 70° C. The column was then cleaned (ramp to 240° C. for 2 minutes). The sample peak was identified by extracting the GC peak corresponding to 50MW (−0.3, +0.7). This peak was integrated to produce the “GC 50MW” data.
For each strain a single colony was picked and grown overnight (10-14 hrs) in 20 mL of LB miller in a 30 mL glass test tube with aeration (a loose cap) at 37 C and 250 rpm shaking. The culture was spun down in a swinging bucket centrifuge for 5 min @3000×g. […]
Data set [2] concerns E. coli. Conditions: library of 89 genes, 100 mM sodium halide salt, headspace GC-MS.
Method: Methyl halide production was sampled by analyzing the headspace gas using GC-MS (Supplementary Information).
Bacteria carrying MHT expression vectors were inoculated from freshly streaked plates and grown overnight. Cells were diluted 100-fold into media containing 1 mM IPTG and 100 mM appropriate sodium halide salt. Culture tubes were sealed with a rubber stopper and grown at 37 degrees for 3 hours. Yeast carrying MHT expression vectors were streaked on uracil dropout plates from freezer stocks (15% glycerol) and grown for 48 hours. Individual colonies were inoculated into 2 mL of synthetic complete uracil dropout media and grown overnight at 30 degrees. Cultures were next inoculated into 100 mL fresh synthetic complete uracil dropout media and grown for 24 hours. […] 10 mL of this concentrated culture was aliquoted into 14 mL culture tubes and sealed with a rubber stopper. Cultures were grown at 30 degrees with 250 rpm shaking.
Another data set relates to S. cerevisiae W303. In words: Methyl iodide production by vacuole-targeted MHT in yeast. The data set is classed as cell-based. Conditions: N-terminal carboxypeptidase Y tag versus cytosolic enzyme, vector pCM190. The source says: In one approach, for illustration and not limitation, the coding sequence of B. maritima methylchloride transferase (MCT) is synthesized and cloned into a high copy vector under the control of a tet-repressible CYC promoter (plasmid pCM190, Gari et al, 1997, Yeast 13:837-48.). The MCT coding sequence is fused to a N-terminal peptide domain from carboxypeptidase Y known to target pendant proteins to the yeast vacuole (amino acid sequence: […] (SEQ ID NO:1), Valls et al., 1990, J Cell Biol. 111:361-8.) This expression system is transformed into S. cerevisiae strain W303a. […] Cultures are grown at 30 degrees with 250 rpm shaking, and methyl iodide production assayed at specified intervals via GC-MS. […] Oven temperature is programmed from 50 degrees (1 min) to 60 degrees (10 degrees/min).
We fused a 16 amino acid vacuolar targeting tag ([…]) from yeast carboxypeptidase Y to the N-terminus of the B. maritima MCT and expressed the enzyme from the vector pCM190. […] We next expressed the cytosolic and vacuolar targeted enzymes in a VPS33A background, which is unable to form functional vacuoles.

In the case of `CI` [methyl iodide], the “level up to which yeast were resistant to deleterious methylating effects of methyl iodide” value in the data set with S. cerevisiae W303a was above 5000 µg/mL. Also, the “sensitivity to methyl iodide” value in the data set with RAD50Δ mutant is listed as “increased sensitivity”.

B1: B. maritima: methyl halide transferase from Batis maritima, SEQ ID NO: 3 (protein, listed as Batis maritima)
chain: MSTVANIAPVFTGDCKTIPTPEECATFLYKVVNSGGWEKCWVEEVIPWDLGVPTPLVLHLVKNNALPNGKGLVPGCGGGYDVVAMANPERFMVGLDISENALKKARETFSTMPNSSCFSFVKEDVFTWRPEQPFDFIFDYVFFCAIDPKMRPAWGKAMYELLKPDGELITLMYPITNHEGGPPFSVSESEYEKVLVPLGFKQLSLEDYSDLAVEPRKGKEKLARWKKMNN
On to B1, for which, in the data set on E. coli [1] (165 mM NaBr, 100 uM IPTG, 1.5 hours, headspace GC/MS), the methyl bromide production entry is given as “best”. The “specificity of methyl halide production” value in the data set with E. coli [1] (methyl bromide versus methyl iodide) is “significant specificity for methyl bromide production”. For the same molecule, in the data set with E. coli [2], the “methyl halide activity on chloride, bromide and iodide” value is recorded as “highest activity of all genes on each ion”. In addition, the “increase in methyl iodide production rate by targeting to the vacuole” value with S. cerevisiae W303 was 50%.
